# Test results from patent US20260242478A1 (published 2026).
# Where no end group is shown, it is not given here.
# B1: Phage-426 clonal phage peptide MFLCPSAMWNRCFY (peptide)
# peptide: MFLCPSAMWNRCFY
# notes: tested as crude clonal phage supernatant
# B2: Phage-422 clonal phage peptide MYWCPINMWDYCYA (peptide)
# peptide: MYWCPINMWDYCYA
# notes: as for B1
# B3: Phage-441 clonal phage peptide MDWCPRDRWDDCFF (peptide)
# peptide: MDWCPRDRWDDCFF
# notes: as for B1
# B4: Phage-434 clonal phage peptide IVWCPTTQWNRCAT (peptide)
# peptide: IVWCPTTQWNRCAT
# notes: as for B1
# B5: Phage-417 clonal phage peptide IYWCPTAMWNRCSA (peptide)
# peptide: IYWCPTAMWNRCSA
# notes: as for B1
# B6: Phage-431 clonal phage peptide MAWCPADQWHECFN (peptide)
# peptide: MAWCPADQWHECFN
# notes: as for B1
# B7: Phage-423 clonal phage peptide INLCPTPMWNRCWL (peptide)
# peptide: INLCPTPMWNRCWL
# notes: as for B1
# B8: Phage-433 clonal phage peptide MAWCPWAQFDECLA (peptide)
# peptide: MAWCPWAQFDECLA
# notes: as for B1
# B9: Phage-439 clonal phage peptide MDWCPRDRWDVCFA (peptide)
# peptide: MDWCPRDRWDVCFA
# notes: as for B1
# B10: Phage-427 clonal phage peptide VILCPTTMWNRCFH (peptide)
# peptide: VILCPTTMWNRCFH
# notes: as for B1
# B11: Phage-418 clonal phage peptide MYWCPKYMWSECFA (peptide)
# peptide: MYWCPKYMWSECFA
# notes: as for B1
# B12: Phage-424 clonal phage peptide ITQCPSTMWNRCSV (peptide)
# peptide: ITQCPSTMWNRCSV
# notes: as for B1
# B13: Phage-435 clonal phage peptide MDWCPRDRWVDCYA (peptide)
# peptide: MDWCPRDRWVDCYA
# notes: as for B1
# B14: Phage-425 clonal phage peptide MDLCPTAMWNRCFY (peptide)
# peptide: MDLCPTAMWNRCFY
# notes: as for B1
# B15: Phage-432 clonal phage peptide IDWCPIIQGLPCFA (peptide)
# peptide: IDWCPIIQGLPCFA
# notes: as for B1
# B16: Phage-436 clonal phage peptide MDWCPRDRWADCFN (peptide)
# peptide: MDWCPRDRWADCFN
# notes: as for B1
# B17: Phage-437 clonal phage peptide MDWCPVDRWADCFN (peptide)
# peptide: MDWCPVDRWADCFN
# notes: as for B1
# B18: Phage-440 clonal phage peptide MDWCPRDRWVDCFN (peptide)
# peptide: MDWCPRDRWVDCFN
# notes: as for B1
# B19: Phage-438 clonal phage peptide MDWCPMSRWAFCFD (peptide)
# peptide: MDWCPMSRWAFCFD
# notes: as for B1
# B20: Phage-428 clonal phage peptide MNWCPSTMWNRCLT (peptide)
# peptide: MNWCPSTMWNRCLT
# notes: as for B1
# Molecular target: Ab-15
# Test: BLI (Octet): sensor loaded with 200 nM biotinylated peptide, 100 nM Ab-15;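 also: binding association and dissociation tracked in real time, fitted to a 1:1 binding model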
Binder,Octet signal,t1/2
"ADWCPRDLWVHCFA (cysteine pairing not given here; also: biotinylated, site not given here, CD28 peptide mask) [Peptide-52]",0.7,3.1 min
"NDWCPRDLWVHCFA (cysteine pairing not given here; also: biotinylated, site not given here, CD28 peptide mask) [Peptide-54]",0.434,4 min
"DDWCPRDLWVHCFA (cysteine pairing not given here; also: biotinylated, site not given here, CD28 peptide mask) [Peptide-55]",0.461,4.2 min

# Molecular target: T1, Anti-CD28 scFv (VH - linker 1 - VL) (biotinylated (site not stated))
# T1 construct: Biotinylated and captured on neutravidin-coated plates in the phage panning ELISA
# Test: phage ELISA; biotinylated anti-CD28 scFv on neutravidin plate, wells pre-incubated with soluble CD28 as competitor, anti-M13-HRP detection
row,Binder,CD28 scFv signal in presence of CD28
1,B1,0.114
2,B2,0.088
3,B3,0.183
4,B4,0.083
5,B5,0.073
6,B6,0.456
7,B7,0.101
8,B8,0.078
9,B9,0.096
10,B10,0.084
11,B11,0.099
12,B12,0.108
13,B13,0.403
14,B14,0.084
15,B15,0.065
16,B16,0.08
17,B17,0.315
18,B18,0.132
19,B19,0.115
20,B20,0.07

# Molecular target: T2, Anti-PSMA Fab (SEQ ID NOs: 19, 20)
# T2 construct: Biotinylated and captured on neutravidin coated plates in the phage ELISA; also called 006 PSMA Fab
# Test: phage binding ELISA; Fab-coated wells pre-incubated with PSMA antigen (competitor: PSMA), then clonal phage, anti-M13 HRP detection
row,Binder,Anti-PSMA Fab signal in the presence of PSMA
1,NCFFAADIHWNFCT (tested as crude phage supernatant) [Phage-1731 (clonal phage displaying the peptide of SEQ ID NO: 2015)],0.18
2,ACHSLVLKHHLQKC (tested as crude phage supernatant) [Phage-1738 (clonal phage displaying the peptide of SEQ ID NO: 2022)],0.0624
3,NCWWHDFRAGHVVC (tested as crude phage supernatant) [Phage-1723 (clonal phage displaying the peptide of SEQ ID NO: 2007)],0.0972
4,PLCGTEEVWWECRL (tested as crude phage supernatant) [Phage-1728 (clonal phage displaying the peptide of SEQ ID NO: 2012)],0.0694
5,ICQWIGATNAWVCY (tested as crude phage supernatant) [Phage-1726 (clonal phage displaying the peptide of SEQ ID NO: 2010)],0.326
6,IRCVGEGHDLVCIF (tested as crude phage supernatant) [Phage-1724 (clonal phage displaying the peptide of SEQ ID NO: 2008)],0.081
7,HLFCWEGSDRCAWV (tested as crude phage supernatant) [Phage-1727 (clonal phage displaying the peptide of SEQ ID NO: 2011)],0.0753
8,MEYCSFHRFTCVLW (tested as crude phage supernatant) [Phage-1736 (clonal phage displaying the peptide of SEQ ID NO: 2020)],0.12
9,FCQWIEATNAWLCY (tested as crude phage supernatant) [Phage-1732 (clonal phage displaying the peptide of SEQ ID NO: 2016)],0.119
10,FCNWVDGDVWVVCK (tested as crude phage supernatant) [Phage-1734 (clonal phage displaying the peptide of SEQ ID NO: 2018)],0.0607
11,HCKFHDYHSWYMCY (tested as crude phage supernatant) [Phage-1737 (clonal phage displaying the peptide of SEQ ID NO: 2021)],0.117
12,FGHCAGSPVFCAYW (tested as crude phage supernatant) [Phage-1730 (clonal phage displaying the peptide of SEQ ID NO: 2014)],0.054
13,SIPCIPRDWLCPIK (tested as crude phage supernatant) [Phage-1725 (clonal phage displaying the peptide of SEQ ID NO: 2009)],0.239
14,SCGWLRGEEFGWWC (tested as crude phage supernatant) [Phage-1739 (clonal phage displaying the peptide of SEQ ID NO: 2023)],0.0625
15,EGCLTLVDGRAWCW (tested as crude phage supernatant) [Phage-1735 (clonal phage displaying the peptide of SEQ ID NO: 2019)],0.0521
16,FVPCIPSHWLCPIW (tested as crude phage supernatant) [Phage-1741 (clonal phage displaying the peptide of SEQ ID NO: 2037)],0.292
17,PDCVYHSFWGYSCR (tested as crude phage supernatant) [Phage-1740 (clonal phage displaying the peptide of SEQ ID NO: 2024)],0.0641
18,FCGWMDGDVFWFCG (tested as crude phage supernatant) [Phage-1733 (clonal phage displaying the peptide of SEQ ID NO: 2017)],0.145
19,NAHCWLWVPAHCRV (tested as crude phage supernatant) [Phage-1729 (clonal phage displaying the peptide of SEQ ID NO: 2013)],0.0672

# Molecular target: T2, Anti-PSMA Fab (SEQ ID NOs: 19, 20)
# Test: phage binding ELISA; biotinylated anti-PSMA Fab captured on neutravidin plate, clonal phage supernatant, anti-M13 HRP detection
row,Binder,"Anti-PSMA Fab (SEQ ID NOs: 19, 20) signal"
1,NCFFAADIHWNFCT (tested as crude phage supernatant) [Phage-1731 (clonal phage displaying the peptide of SEQ ID NO: 2015)],1.48
2,ACHSLVLKHHLQKC (tested as crude phage supernatant) [Phage-1738 (clonal phage displaying the peptide of SEQ ID NO: 2022)],1.18
3,NCWWHDFRAGHVVC (tested as crude phage supernatant) [Phage-1723 (clonal phage displaying the peptide of SEQ ID NO: 2007)],2.05
4,PLCGTEEVWWECRL (tested as crude phage supernatant) [Phage-1728 (clonal phage displaying the peptide of SEQ ID NO: 2012)],1.57
5,ICQWIGATNAWVCY (tested as crude phage supernatant) [Phage-1726 (clonal phage displaying the peptide of SEQ ID NO: 2010)],1.82
6,IRCVGEGHDLVCIF (tested as crude phage supernatant) [Phage-1724 (clonal phage displaying the peptide of SEQ ID NO: 2008)],2.12
7,HLFCWEGSDRCAWV (tested as crude phage supernatant) [Phage-1727 (clonal phage displaying the peptide of SEQ ID NO: 2011)],1.4
8,MEYCSFHRFTCVLW (tested as crude phage supernatant) [Phage-1736 (clonal phage displaying the peptide of SEQ ID NO: 2020)],1.74
9,FCQWIEATNAWLCY (tested as crude phage supernatant) [Phage-1732 (clonal phage displaying the peptide of SEQ ID NO: 2016)],1.06
10,FCNWVDGDVWVVCK (tested as crude phage supernatant) [Phage-1734 (clonal phage displaying the peptide of SEQ ID NO: 2018)],0.51
11,HCKFHDYHSWYMCY (tested as crude phage supernatant) [Phage-1737 (clonal phage displaying the peptide of SEQ ID NO: 2021)],1.58
12,FGHCAGSPVFCAYW (tested as crude phage supernatant) [Phage-1730 (clonal phage displaying the peptide of SEQ ID NO: 2014)],1.06
13,SIPCIPRDWLCPIK (tested as crude phage supernatant) [Phage-1725 (clonal phage displaying the peptide of SEQ ID NO: 2009)],1.8
14,SCGWLRGEEFGWWC (tested as crude phage supernatant) [Phage-1739 (clonal phage displaying the peptide of SEQ ID NO: 2023)],0.891
15,EGCLTLVDGRAWCW (tested as crude phage supernatant) [Phage-1735 (clonal phage displaying the peptide of SEQ ID NO: 2019)],1.05
16,FVPCIPSHWLCPIW (tested as crude phage supernatant) [Phage-1741 (clonal phage displaying the peptide of SEQ ID NO: 2037)],1.05
17,PDCVYHSFWGYSCR (tested as crude phage supernatant) [Phage-1740 (clonal phage displaying the peptide of SEQ ID NO: 2024)],0.583
18,FCGWMDGDVFWFCG (tested as crude phage supernatant) [Phage-1733 (clonal phage displaying the peptide of SEQ ID NO: 2017)],0.428
19,NAHCWLWVPAHCRV (tested as crude phage supernatant) [Phage-1729 (clonal phage displaying the peptide of SEQ ID NO: 2013)],1.35

# Molecular target: anti-CD28 Fab
# Test: competition ELISA, peptide titrated 0-100 uM against 1 nM anti-CD28 Fab, plate-bound CD28 as competitor
row,Binder,IC50
1,SCAAAASYAWPYCL [Peptide-100],> 100 µM
2,SCAAGASYAWPYCA [Peptide-106],76.4 µM
3,SCAAGASYAWPACL [Peptide-105],13 µM
4,SCAAGASYAWAYCL [Peptide-104],> 100 µM
5,SCAAGASAAWPYCL [Peptide-102],> 100 µM
6,SCAAGAAYAWPYCL [Peptide-101],7.42 µM
7,SCAAGASYAAPYCL [Peptide-103],> 100 µM

# Molecular target: T1, Anti-CD28 scFv (VH - linker 1 - VL)
# Test: phage ELISA; biotinylated anti-CD28 scFv on neutravidin plate, clonal phage supernatant, anti-M13-HRP detection;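 also: before phage addition, wells were pretreated with soluble CD28 protein in blocking buffer, or with blocking buffer only as the comparison, then phage were added without washing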
row,Binder,CD28 scFv signal
1,B1,0.094
2,B2,0.109
3,B3,0.899
4,B4,0.067
5,B5,0.817
6,B6,1.84
7,B7,0.103
8,B8,0.071
9,B9,0.924
10,B10,0.072
11,B11,0.741
12,B12,0.098
13,B13,1.48
14,B14,0.097
15,B15,0.368
16,B16,1.35
17,B17,1.16
18,B18,0.911
19,B19,1
20,B20,0.065

# Molecular target: Ab-15
# Test: competition ELISA: peptide titrated against 1 nM Ab-15; competitor plate-bound CD28
row,Binder,IC50
1,"ADWCPRDLWVHCFA (cysteine pairing not given here; also: biotinylated, site not given here, CD28 peptide mask) [Peptide-52]",2 µM
2,"NDWCPRDLWVHCFA (cysteine pairing not given here; also: biotinylated, site not given here, CD28 peptide mask) [Peptide-54]",5.03 µM
3,"DDWCPRDLWVHCFA (cysteine pairing not given here; also: biotinylated, site not given here, CD28 peptide mask) [Peptide-55]",4.46 µM

# Molecular target: Ab-15
# Test: binding ELISA: biotinylated peptide on neutravidin plate, Ab-15 titrated
row,Binder,EC50
1,"ADWCPRDLWVHCFA (cysteine pairing not given here; also: biotinylated, site not given here, CD28 peptide mask) [Peptide-52]",0.0759 µM
2,"NDWCPRDLWVHCFA (cysteine pairing not given here; also: biotinylated, site not given here, CD28 peptide mask) [Peptide-54]",0.0843 µM
3,"DDWCPRDLWVHCFA (cysteine pairing not given here; also: biotinylated, site not given here, CD28 peptide mask) [Peptide-55]",0.0868 µM
